For 3 sequences, binding results are on record in paper PMC2957411.

Data set [1] deals with T1, His6-HrpL (alternative sigma factor);core RNA polymerase (Epicentre) (Dickeya dadantii 3937;) (UniProt E0SE58+P0A7Z4+P0A8V2+P0A8T7+P0A800). Nature of the data set: EMSA.
Data set [2] addresses T1, His6-HrpL (alternative sigma factor);core RNA polymerase (Epicentre) (Dickeya dadantii 3937;). In words: competition.

For the sequence “AAGTATCTGCAACGGATGCCCGCTCCGATCCCGATGCGGGCATCATGATGGATACTGGTTAATGAGTGACGCCAGCGGTGAAACGGTTCCCTGCCGTCGCCGGTTCGCCGCAAAAAAAGAAACCG (double strand) [hrpN promoter fragment with hrp box]”, the binding entry in data set [1] was “binds”.

Consider “CTTGGTGGCTGAGTCCATCTGGCCGTCGGTGATTGAGCTGATAGCATCGGTTTTCATTTTCTGCTCCTGGGCAGCGGTGGTCATCGCCGTGGTCGATGCCATGGTTTTGTCCAGAGACTGC (double strand) [hrpA ORF internal fragment (hrpAORF), no hrp box]”, for which the binding result in data set [2] is on record as “no binding”. Take “GATTTCGCTATGAACTTTGCGACTTACACAGTCATCGTGTTCATAGATTAAGTAGGAGATAATGCGAGGTGGTTCCGAAAGATATTCACTTTTTTCCCCTGGTGGTGATAACAGGATACAGCC (double strand) [hrpA promoter fragment with hrp box]”: the binding result in data set [1] was “binds”.
